Assay [1] concerns the target human BTN3A, endogenous on human cells (PBMCs; Daudi cells) (human) (UniProt O00481). Briefly: flow cytometry, human PBMCs Donor 1, from the fitted curve.
The target is the same in assay [2]. Briefly: flow cytometry, human PBMCs Donor 1, PE anti-human secondary. Background: Flow cytometry measures light scatter and fluorescence of single cells or particles in a stream.
The target of assay [3] is BTN3A1 antigen (Sino Biological cat. no. 15973-H08H) (human) (UniProt O00481). Kind of assay: SPR Biacore T200, single cycle kinetics, culture supernatants.
BTN3A1 antigen (Sino Biological cat. no. 15973-H08H) (human), sequence (O00481 30-254 limits assumed): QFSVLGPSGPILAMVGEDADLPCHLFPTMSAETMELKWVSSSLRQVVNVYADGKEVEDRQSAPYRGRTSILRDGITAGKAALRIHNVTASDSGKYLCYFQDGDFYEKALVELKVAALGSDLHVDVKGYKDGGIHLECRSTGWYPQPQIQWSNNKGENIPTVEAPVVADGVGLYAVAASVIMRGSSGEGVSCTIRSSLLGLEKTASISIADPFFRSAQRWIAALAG
Assay [4] deals with cynomolgus BTN3A, endogenous on cynomolgus PBMCs (cynomolgus). Briefly: flow cytometry, cynomolgus PBMCs Donor 1, from the fitted curve.
For assay [5] the target is unchanged. Briefly: flow cytometry, cynomolgus PBMCs Donor 2, from the fitted curve.
The target is the same in assay [6]. Kind of assay: flow cytometry, cynomolgus PBMCs Donor 3, from the fitted curve.
The target is the same in assay [7]. Briefly: flow cytometry, cynomolgus PBMCs Donor 1, PE anti-human secondary.
For assay [8] the target is unchanged. Briefly: flow cytometry, cynomolgus PBMCs Donor 2, PE anti-human secondary.
The target is the same in assay [9]. Briefly: flow cytometry, cynomolgus PBMCs Donor 3, PE anti-human secondary.
For assay [10], the target named is BTN3A1 antigen (Sino Biological cat. no. 15973-H08H) (human) (UniProt O00481). Kind of assay: SPR Biacore T200, multi-cycle kinetics, antibody captured on Protein A, BTN3A1 as analyte. On the technique in general: SPR reads the build-up and loss of mass on a sensor chip optically.
Assay [11] has as its target T1, human BTN3A, endogenous on human cells (PBMCs; Daudi cells) (human, UniProt O00481 30-513). Briefly: cell-based or functional assay.
The target of assay [12] is T1, human BTN3A, endogenous on human cells …. Briefly: flow cytometry, human PBMCs Donor 1, PE anti-human secondary. As for the experimental part: Frozen PBMCs were revived, added to pre-warmed AIM-V (ThermoFisher Scientific, Loughborough, UK) media and counted. Cells were harvested, washed by centrifuging at 500×g for 10 minutes and then resuspended in 1×DPBS, pH 7.4. This step was repeated once and the cells were resuspended in 1×DPBS, pH 7.4 at 1×10⁶ cells/mL. Cells were stained for viable and dead cells by incubating for half an hour in the dark using the LIVE/DEAD® Far Red Dead Cell staining kit (ThermoFisher, Paisley, UK) following the manufacturer's instructions. An aliquot of cells heated at 70° C. for ten minutes was included as the dead cell control. During this staining, a three-point, 1 in 3 titration curve of test antibody (starting from 0.063 μg/mL for the selected antibodies) was prepared in Flow buffer (0.5% BSA, 2 mM EDTA, 1×DPBS, pH 7.4) in a 96-well dilution plate. […] Cells were then analysed on an Attune NxT focusing cytometer (ThermoFisher Scientific, Loughborough, UK), collecting 10,000 events per sample using two laser channels: RL1 for live/dead cells and BL2 for PE. Data was analysed using the instrument statistic tool or FlowJo software (Version 10, FlowJo, LLC, Ashland, USA) gating on the live population of lymphocyte cells. The X-median values from BL2 channel (PE signal) were then calculated and plotted against concentration. […]

Assay [13] concerns the target T2, BTN3A1 antigen (Sino Biological cat. no. 15973-H08H) (human, UniProt O00481 30-254).
T2 construct: Bought recombinant antigen; also called CD277
Briefly: SPR Biacore T200, single cycle kinetics, culture supernatants. Here is the method: To assess the binding of all Composite Human Antibody™ variants and to select antibodies with suitable affinity to BTN3A as compared to the original murine antibody, single cycle kinetic analysis was performed on supernatants from transfected cell culture using a Biacore T200 (serial no. 1909913) running Biacore T200 Evaluation Software V2.0.1 (Uppsala, Sweden).

Assay [14] has as its target T2, BTN3A1 antigen (Sino Biological cat. …). Briefly: SPR Biacore T200, multi-cycle kinetics, antibody captured on Protein A, BTN3A1 as analyte. As for the experimental part: Multi-cycle kinetic analysis was performed on the six selected humanized 103.2 variants (VH4/Vκ2, VH4/Vκ3, VH4/Vκ4, VH5/Vκ2, VH5Vκ3, VH5/Vκ4) together with the chimeric antibody and the humanized variant, VH1/Vκ1, using a Biacore T200 (serial no. 1909913) instrument running Biacore T200 Evaluation Software V2.0.1 (Uppsala, Sweden).
Purified antibodies were diluted to a concentration of 2 μg/ml in 2% BSA/PBS. At the start of each cycle, each antibody was captured on the Protein A at a density (RL) of ˜146.5 RU (theoretical value to obtain an RMax of ˜50 RU). Following capture, the surface was allowed to stabilize before injection of the BTN3A1 antigen (Sino Biological cat. no. 15973-H08H). BTN3A1 was titrated in 0.1% BSA/HBS-P+(running buffer) in a two-fold dilution range from 25 to 0.78 nM. The association phase was monitored for 400 seconds and the dissociation phase for 35 minutes (2100 seconds). Kinetic data was obtained using a flow rate of 50 μl/min to minimize any potential mass transfer effects. Regeneration of the Protein A surface was conducted using two injections of 10 mM glycine-HCL pH 1.5 at the end of each cycle. Two blanks (no BTN3A1) and a repeat of a single concentration of the analyte were performed for each tested antibody to check the stability of the surface and analyte over the kinetic cycles. The signal from the reference channel Fc1 was subtracted from that of Fc2, Fc3 and Fc4 to correct for differences in non-specific binding to a reference surface. Additionally, blank runs were subtracted for each Fc to correct any antigen-independent signal variation, such as drift. Sensorgrams were fitted using a one-to-one binding mathematical model with a global RMax parameter and no bulk signal (Constant RI=0 RU).
The relative KD compared to 103.2 chimeric (VH0/Vκ0) was calculated by dividing the KD of the 103.2 Composite Human Antibody™ variants by that of the chimeric on the same chip.

Assay [15] deals with T3, human BTN3A2 expressed on HEK293 cells (human, UniProt P78410 30-334).
T3 construct: Cell microarray (Retrogenix); also called BTN3A2 (two isoforms)
T3 sequence (P78410 30-334 limits assumed): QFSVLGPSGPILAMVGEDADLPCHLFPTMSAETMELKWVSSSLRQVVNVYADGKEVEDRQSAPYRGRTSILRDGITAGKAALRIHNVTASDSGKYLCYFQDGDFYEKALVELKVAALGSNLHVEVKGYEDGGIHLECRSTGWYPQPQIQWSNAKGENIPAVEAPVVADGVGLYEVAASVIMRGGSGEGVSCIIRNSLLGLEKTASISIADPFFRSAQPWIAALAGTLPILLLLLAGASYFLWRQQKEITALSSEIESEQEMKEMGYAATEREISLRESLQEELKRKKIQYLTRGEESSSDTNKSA
Kind of assay: cell microarray (Retrogenix), fixed HEK293 cells, 2 µg/ml antibody.

Assay [16] has as its target T4, human BTN3A3 expressed on HEK293 cells (human, UniProt O00478 30-584).
T4 construct: Cell microarray (Retrogenix); one isoform of BTN3A3 was a hit; also called BTN3A3 (one isoform)
The description is as above.

Results on three molecules are retold here after patent US20250353909A1 (IMCHECK THERAPEUTICS, published 2025).

T2 sequence (O00481 30-254 limits assumed): as the sequence (O00481 30-254 limits assumed) above
T1 sequence (O00481 30-513): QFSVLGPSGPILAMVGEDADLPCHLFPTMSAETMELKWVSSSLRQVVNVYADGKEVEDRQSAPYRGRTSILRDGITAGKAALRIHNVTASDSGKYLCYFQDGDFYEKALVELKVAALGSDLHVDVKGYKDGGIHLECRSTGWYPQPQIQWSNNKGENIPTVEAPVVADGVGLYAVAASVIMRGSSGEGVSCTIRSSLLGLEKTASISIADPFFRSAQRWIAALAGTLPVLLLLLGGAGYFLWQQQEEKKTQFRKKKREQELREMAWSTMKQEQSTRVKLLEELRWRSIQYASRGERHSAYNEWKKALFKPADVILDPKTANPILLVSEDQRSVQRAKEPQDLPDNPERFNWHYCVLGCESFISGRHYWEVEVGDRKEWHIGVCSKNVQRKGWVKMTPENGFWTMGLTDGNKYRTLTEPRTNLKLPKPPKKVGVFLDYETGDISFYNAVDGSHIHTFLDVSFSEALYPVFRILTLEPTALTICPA
human BTN3A, endogenous on human cells (PBMCs; Daudi cells) (human), sequence (O00481 30-513): as above
T4 sequence (O00478 30-584 limits assumed): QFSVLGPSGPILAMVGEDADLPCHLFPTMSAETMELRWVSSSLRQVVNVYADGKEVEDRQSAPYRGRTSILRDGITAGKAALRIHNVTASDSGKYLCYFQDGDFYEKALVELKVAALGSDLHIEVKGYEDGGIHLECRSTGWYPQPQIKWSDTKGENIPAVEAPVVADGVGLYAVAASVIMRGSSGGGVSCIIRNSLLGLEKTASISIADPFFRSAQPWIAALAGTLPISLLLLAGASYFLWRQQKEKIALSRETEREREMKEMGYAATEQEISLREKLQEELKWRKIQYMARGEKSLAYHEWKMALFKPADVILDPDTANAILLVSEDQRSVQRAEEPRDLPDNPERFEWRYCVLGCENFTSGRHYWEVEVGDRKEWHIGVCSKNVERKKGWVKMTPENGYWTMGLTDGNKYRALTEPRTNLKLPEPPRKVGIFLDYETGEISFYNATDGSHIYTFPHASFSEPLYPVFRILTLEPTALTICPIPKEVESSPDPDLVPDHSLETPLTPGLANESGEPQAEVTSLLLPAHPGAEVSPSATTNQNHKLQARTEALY

For the molecule 103.2 chimeric antibody VH0/Vκ0, the Theoretical Max binding (MFI) came out at 19600 MFI in assay [1], 8950 MFI in [4], 5940 MFI in assay [5] and 5150 MFI in assay [6]. The EC50 – broadly, the concentration that produces a half-maximal response – in assay [2] was found to be 0.019 µg/mL; in assay [7] it was 0.014 µg/mL; in assay [8] it was 0.012 µg/mL; in assay [9], 0.013 µg/mL. The Kd – broadly, the concentration at which binding is half-saturated – in assay [3] is 0.0403 nM; in assay [10] it was 0.106 nM. Besides, the Relative KD to 103.2 chimeric in [3] is 1. Also, in [10], the Relative KD to chimeric stood at 1. Besides, in assay [10], the koff (commonly a measure of how fast the partners let go of each other) was found to be 8.98e-05 s⁻¹. Also, the kon – broadly, a measure of how fast the partners come together – in assay [10] was 845000 M⁻¹ s⁻¹.

B1: 103.2 humanized variant VH4/Vκ4 (antibody, V domains shown)
VH: QVQMQQSGAEVKKPGASVKVSCKASGYAFTSYLIHWIKQRPGQGLEWIGVINPRSGDSHYNEKFKDRVTMTADQSISTAYMELSRLRSDDTAVYYCARSDYGAYWGQGTLVTVSS
VL: EIVLTQSPATLSVSPGERATLSCRASQSISNNLHWYQQKPGQAPRLLIKYASQSAFGIPARFSGSGSGTEFTLTISSLQSEDFAVYFCQQSNSWPHTFGQGTKLEIK
notes: also called H4K4; 103.2 VH4/V κ 4
On to B1, for which, in assay [11], the “IC50 (µg/ml), inhibition of γδ T cell degranulation (CD107a/b) against Daudi cells” value came to 0.0121 µg/mL. Further, the figures for the Theoretical Max binding (MFI) in [4], in [5] and in assay [6] were 8560 MFI, 5820 MFI and 4970 MFI, respectively. Also, the EC50 in assay [7] was found to be 0.013 µg/mL; in assay [8], 0.011 µg/mL; in assay [9], 0.012 µg/mL; in [12] it was 0.017 µg/mL. The results for the Kd in assay [13] and in assay [14] were 0.054 nM and 0.108 nM, respectively. Also, the “Relative KD to 103.2 chimeric” value in [13] is 1.3 ratio. The “Relative KD to chimeric” value in assay [14] was determined as 1 ratio. In assay [14], the koff turned out to be 8.33e-05 s⁻¹. In assay [14], the kon is 770000 M⁻¹ s⁻¹.

B2: mAb1 (Fc-silenced humanized 103.2 IgG1) (antibody, V domains shown)
VH: QVQMQQSGAEVKKPGASVKVSCKASGYAFTSYLIHWIKQRPGQGLEWIGVINPRSGDSHYNEKFKDRVTMTADQSISTAYMELSRLRSDDTAVYYCARSDYGAYWGQGTLVTVSS
VL: EIVLTQSPATLSVSPGERATLSCRASQSISNNLHWYQQKPGQAPRLLIKYASQSAFGIPARFSGSGSGTEFTLTISSLQSEDFAVYFCQQSNSWPHTFGQGTKLEIKR
notes: Fc-silenced human IgG1, kappa; also called humanized 103.2 Fc-silenced IgG1; Hu103.2
Turning to B2, the binding result in assay [15] and in assay [16] was “binds” in each case.
